Test results as given in patent publication US20100104554A1 (FUSION ANTIBODIES LIMITED A CORPORATION OF GREAT BRITIAN, published 2010).

Tests used:
[1] = target: T1, human cathepsin V (Calbiochem) (human, UniProt O60911 114-334); test: fluorometric enzyme inhibition assay with Z-Phe-Arg-AMC, non-linear regression of progress curves
T1 construct: also called CatV; Cat V
Protocol: (§1) Enzymatic assays were used to ascertain the ability of the rCatSPP to inhibit the peptidolytic activity of human cathepsins S, L, K, V and B (Calbiochem). Assays were performed in triplicate in 96-well microtitre plates in the presence of 100 mM sodium acetate, 1 mM ethylenediaminetetraacetate (EDTA), 0.1% Brij and 1 mM: dithiothreitol (DTT) at pH 5.5. CatS activity was monitored using the fluorigenic substrate carbobenzloxy-L-valinyl-L-vahnyl-L-arginylamido-4-methyl coumarin (Z-Val-Val-Arg-AMC, 25 μM), assays for cathepsins L, K and V were performed using carbobenzloxy-L-phenylalanyl-L-arginylamido-4-methyl coumarin (Z-Phe-Arg-AMC, 25 μM) and assays for CatB were performed using carbobenzloxy-L-arginylamido -L-arginylamido-4-methyl coumarin (Z-Arg-Arg-AMG, 25 μM) as substrates. Purified rCatSPP was added to assays as required at various concentrations (0-1000 nM). All experiments were performed using a Cytofluor® 4000 spectrofluorimeter with excitation at 395 nm and emission at 460 nm. To confirm that the rCatSPP-Fc also had the ability to inhibit the activity of CatS, flurometric assays were performed using CatS, Z-Val-Val-Arg-AMC, 25 μM) in the presence of the rCatSPP-Fc (0 nM-200 nM).
(§2) Fluorescence was monitored for 30 mins and the RFU plotted over time to generate fluorometric progress curves. […] All fluorometric assays were performed in replicates of three.

[2] = target: T2, human cathepsin L (Calbiochem) (human, UniProt P07711 114-333, limits assumed); test: as above
T2 construct: also called CatL; Cat L
T2 sequence (P07711 114-333 limits assumed): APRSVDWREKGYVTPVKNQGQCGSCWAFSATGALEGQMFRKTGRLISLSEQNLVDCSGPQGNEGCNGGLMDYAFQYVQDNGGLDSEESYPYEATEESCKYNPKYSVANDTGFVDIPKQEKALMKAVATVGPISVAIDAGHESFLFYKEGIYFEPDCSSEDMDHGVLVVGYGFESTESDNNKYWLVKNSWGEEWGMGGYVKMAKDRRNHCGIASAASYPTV
Protocol: as §1, §2

[3] = target: T3, human cathepsin K (Calbiochem) (human, UniProt P43235 115-329); test: as above
T3 construct: also called CatK; Cat K
T3 sequence (looked up): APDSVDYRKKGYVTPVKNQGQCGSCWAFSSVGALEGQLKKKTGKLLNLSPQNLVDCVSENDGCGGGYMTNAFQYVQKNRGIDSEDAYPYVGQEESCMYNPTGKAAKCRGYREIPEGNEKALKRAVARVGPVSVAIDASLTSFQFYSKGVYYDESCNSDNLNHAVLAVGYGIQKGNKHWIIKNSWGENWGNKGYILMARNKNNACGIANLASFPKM
Protocol: as §1, §2

[4] = target: T4, human cathepsin S (Calbiochem) (human, UniProt P25774 115-331); test: cell-based or functional assay
[5] = target: T4, human cathepsin S (Calbiochem); test: fluorometric enzyme inhibition assay with Z-VVR-AMC, rates taken from progress curves
Protocol: as §1, with “To confirm that the rCatSPP-Fc also had the ability to inhibit the activity of CatS, flurometric assays were performed using CatS, Z-Val-Val-Arg-AMC, 25 μM) in the presence of the rCatSPP-Fc (0 nM-200 nM).” left out
The inhibition of CatS peptidolytic activity using CatSPP Fc was measured. The rCatSPP-Fc was assessed by fluorometric assay using the fluorogenic substrate Z-VVR-AMC to determine if the species had the ability to retain its inhibition of CatS after the addition of the Fc-domain without any negative effects on the kinetics. […]

T1 sequence (O60911 114-334 limits assumed): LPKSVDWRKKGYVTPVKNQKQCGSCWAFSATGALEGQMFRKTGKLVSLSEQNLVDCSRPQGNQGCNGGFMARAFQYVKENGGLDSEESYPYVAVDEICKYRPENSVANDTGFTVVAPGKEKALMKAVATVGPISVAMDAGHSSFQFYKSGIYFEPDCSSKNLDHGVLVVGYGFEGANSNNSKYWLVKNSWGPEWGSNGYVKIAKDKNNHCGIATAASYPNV

B1: recombinant human cathepsin S propeptide (residues 17-113) with N-terminal hexahistidine tag, expressed from pQE30 (peptide)
chain: MRGSHHHHHHGSQLHKDPTLDHHWHLWKKTYGKQYKEKNEEAVRRLIWEKNLKFVMLHNLEHSMGMHSYDLGMNHLGDMTSEEVMSLTSSLRVPSQWQRNITYKSNPNRVDLQPSLIS
notes: also called rCatSPP; CatSPP
For B1, the Ki [1] was 4.8 nM, the Ki [2] was 0.62 nM and the Ki [3] was 17.6 nM. The “EC50 of MDA-MB-231 tumour cell invasion (modified Boyden chamber, Matrigel)” value [4] was 78 nM.

B2: recombinant cathepsin S propeptide with C-terminal IgG2 Fc domain and N-terminal His-tag, expressed from pRSET A-Fc (Fc fusion)
chain: QLHKDPTLDHHWHLWKKTYGKQYKEKNEEAVRRLIWEKNLKFVMLHNLEHSMGMHSYDLGMNHLGDMTSEEVMSLMSSLRVPSQWQRNITYKSNPNR
notes: About 46 kDa, made in E. coli BL21 (DE3) pLysS; also called rCatSPP-Fc; CatSPP-Fc; not shown: N-terminal His-tag and leader from the pRSET A vector; IgG2 Fc domain engineered into the pRSET vector
B2 was tested, and the “EC50 of MDA-MB-231 tumour cell invasion (modified Boyden chamber, Matrigel)” value [4] was 8.3 nM and the Ki [5] was 8.9 nM.
